In test [1] the target is T1, cynomolgus monkey CD3 expressed on cyno primary T cells (cynomolgus monkey, UniProt Q95LI5 22-198; Q95LI8 22-171; Q95LI7 23-181).
T1 construct: whole, on cells; CD3 complex on purified cynomolgus monkey CD3 pan T cells; also called cyno CD3
Put plainly: flow cytometry, cyno primary T cells. The gist of the method:
(§1)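 Values are fold over isotype: median fluorescence intensity of each antibody relative to isotype control after a 30-minute, 4° C incubation at 25 nM with CD3-bearing cells in PBS containing 2% FBS.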
Background: In flow cytometry, cells or beads pass a laser one at a time.

Test [2] deals with T2, human CD3 expressed on cells (Jurkat cells; human primary T cells) (human, UniProt P07766 23-207; P04234 22-171; P09693 23-182).
T2 construct: whole, on cells
T2 sequence (P07766 23-207, chain 1 of 3): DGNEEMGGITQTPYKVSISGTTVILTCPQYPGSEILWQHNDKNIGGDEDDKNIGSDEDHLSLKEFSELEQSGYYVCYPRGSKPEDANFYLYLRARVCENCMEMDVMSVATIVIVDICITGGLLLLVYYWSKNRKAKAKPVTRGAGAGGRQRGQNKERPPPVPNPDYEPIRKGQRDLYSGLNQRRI
T2 sequence (P04234 22-171, chain 2 of 3): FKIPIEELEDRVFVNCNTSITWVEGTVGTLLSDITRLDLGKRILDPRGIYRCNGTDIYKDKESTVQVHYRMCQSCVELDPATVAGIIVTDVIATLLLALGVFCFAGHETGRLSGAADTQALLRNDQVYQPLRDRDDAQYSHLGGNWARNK
T2 sequence (P09693 23-182, chain 3 of 3): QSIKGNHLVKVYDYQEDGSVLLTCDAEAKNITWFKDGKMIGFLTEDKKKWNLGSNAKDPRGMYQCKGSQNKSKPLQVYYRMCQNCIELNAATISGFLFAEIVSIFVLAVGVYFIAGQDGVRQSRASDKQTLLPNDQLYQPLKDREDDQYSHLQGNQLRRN
Put plainly: flow cytometry, 25 nM, Jurkat cells. Put shortly:
as §1

Test [3] concerns the target T2, human CD3 expressed on cells (Jurkat …). Put plainly: flow cytometry, 25 nM, human primary T cells. The gist of the method: as §1
The target of test [4] is human EGFR, C-terminal eGFP-tagged, on CHO-K1 cells (human, UniProt P00533 25-1210). Put plainly: cell-based or functional assay.

The results in this text go back to patent US20230295310A1 (ABCELLERA BIOLOGICS, published 2023).

T1 sequence (Q95LI5 22-198, chain 1 of 3): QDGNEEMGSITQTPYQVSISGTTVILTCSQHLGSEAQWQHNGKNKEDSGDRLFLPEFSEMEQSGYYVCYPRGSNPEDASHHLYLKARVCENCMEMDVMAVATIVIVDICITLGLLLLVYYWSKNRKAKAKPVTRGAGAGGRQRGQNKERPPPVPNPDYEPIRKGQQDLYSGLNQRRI
T1 sequence (Q95LI8 22-171, chain 2 of 3): as the sequence (P04234 22-171, chain 2 of 3) above, with I5V, N15K, I20V, S32T, D33N, I34N, T64A, S74N, V83L, H141R counted along it
T1 sequence (Q95LI7 23-181, chain 3 of 3): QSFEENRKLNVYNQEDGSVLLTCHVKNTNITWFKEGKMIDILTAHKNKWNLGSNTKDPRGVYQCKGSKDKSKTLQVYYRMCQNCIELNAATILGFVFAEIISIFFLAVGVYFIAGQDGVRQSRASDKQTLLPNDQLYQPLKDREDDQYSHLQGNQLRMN

B1: mAb 284 (antibody, V domains shown)
VH: EVQLLESGGGLVQPGGSLRLSCAASGFTFSSYAMSWVRQAPGKGLEWVSAISGSSGRTYYTDSVKGRFTISRDNSKNTLSLQMNSLRAEDTAVYYCAKKYSYYYYYMDVWGKGTTVTVSS
VL: SYELTQPLSVSVALGQTAKITCGGNNIGSKNVHWYQQKPGQAPVLVIYRDSNRPSGIPERFSGSNSGNTATLTISRAQAGDEADYYCQVWDSSTAVFGGGTQLTAL
notes: VH/VL only
B1: the binding result in test [1] is listed as “no binding (tested: FOI <10 (FOI >=10 = positive); 25 nM)”. The “Binding (FOI)” value in test [2] amounted to 226 FOI; in test [3] it was 209 FOI.

B2: GOMP001_bsAb_011 (bispecific antibody, human IgG1, kappa, L234A L235A)
heavy 1: QVQLVQSGAEVKKPGASVKVSCKASGYTFTSHWMHWVRKAPGQGLEWIGEFNPSNGRTNYNEEFKSKATMTVDTSTNTAYMELSSLRSEDTAVYYCASRDYDYDGRYFDYWGQGTLVTVSSASTKGPSVFPLAPSSKSTSGGTAALGCLVADYFPEPVTVSWNSGALTSGVHTFPAVLQSSGLYSLSSVVTVPSSSLGTQTYICNVNHKPSNTKVDEKVEPKSCDKTHTCPPCPAPEAAGGPSVFLFPPKPKDTLMISRTPEVTCVVVDVSHEDPEVKFNWYVDGVEVHNAKTKPREEQYNSTYRVVSVLTVLHQDWLNGKEYKCKVSNKALPAPIEKTISKAKGQPREPQVYTLPPSREEMTDNQVSLTCLVKGFYPSDIAVEWESNGQPENNYKTTPPVLMSDGSFFLASKLTVDKSRWQQGNVFSCSVMHEALHNHYTQKSLSLSPG
light 1: RIQMTQSPSSLSASVGDRVTITCSASSSVTYMYWYQDKPGKAPKLLIYDTSNLASGVPSRFSGSGSGTDYTFTISSLQPEDIATYYCQQWSSHIFTFGQGTKVEIKRTVAAPSVFIFPPSDKQLKSGTARVVCLLNNFYPREAKVQWKVDNALQSGNSQESVTEQDSKDSTYSLSSTLTLSKADYEKHKVYACEVTHQGLSSPVTKSFNRGEC
heavy 2: EVQLVESGGGLVQPGGSLRLSCAASGFTLSSYTMNWVRYAPGKGLEWVSYISSSSRTIYYSDRVKGRFSISRDNAKNSLYLQMNSLRDEDTALYYCAREDYYDSSGFDNWGRGTLVTVSSASTKGPSVFPLAPSSKSTSGGTAALGCLVKDYFPEPVTVSWNSGALTSGVHTFPAVLQSSGLYSLSSVVTVPSSSLGTQTYICNVNHKPSNTKVDKKVEPKSCDKTHTCPPCPAPEAAGGPSVFLFPPKPKDTLMISRTPEVTCVVVDVSHEDPEVKFNWYVDGVEVHNAKTKPREEQYNSTYRVVSVLTVLHQDWLNGKEYKCKVSNKALPAPIEKTISKAKGQPRRPRVYTLPPSREEMTKNQVSLVCLVKGFYPSDIAVEWESNGQPENNYKTTPPVLDSDGSFFLYSVLTVDKSRWQQGNVFSCSVMHEALHNHYTQKSLSLSPG
light 2: DIRMTQSPSSFSASTGDRVTITCRASQGISSYLAWYQRKPGDAPKLLIYTASTLQSGVPSRFSGSGSGTDFTLTIRSLQSEDFATYYCQQYYSYPRTFGQGTKVEIKRTVAAPSVFIFPPSDEQLKSGTASVVCLLNNFYPREAKVQWKVDNALQSGNSQESVTEQDSKDSTYSLSSTLTLSKADYEKHKVYACEVTHQGLSSPVTKSFNRGEC
For B2, in test [4], the “EC50 CHO-K1 EGFR Low (nM); T cell activation bioassay, luciferase” value (from here on “EC50 CHO-K1 EGFR Low (nM)”) came to 0.106 nM and the “EC50 CHO-K1 EGFR Med (nM); T cell activation bioassay, luciferase” value (“EC50 CHO-K1 EGFR Med (nM)” for short) was determined as 0.0263 nM.

B3: GOMP001_bsAb_012 (bispecific antibody, human IgG1, kappa, L234A L235A)
heavy 1: EVQLVESGGGLVQPGGSLRLSCAASGFTLSSYTMNWVRYAPGKGLEWVSYISSSSRTIYYSDRVKGRFSISRDNAKNSLYLQMNSLRDEDTALYYCAREDYYDSSGFDNWGRGTLVTVSSASTKGPSVFPLAPSSKSTSGGTAALGCLVKDYFPEPVTVSWNSGALTSGVHTFPAVLQSSGLYSLSSVVTVPSSSLGTQTYICNVNHKPSNTKVDKKVEPKSCDKTHTCPPCPAPEAAGGPSVFLFPPKPKDTLMISRTPEVTCVVVDVSHEDPEVKFNWYVDGVEVHNAKTKPREEQYNSTYRVVSVLTVLHQDWLNGKEYKCKVSNKALPAPIEKTISKAKGQPRRPRVYTLPPSREEMTKNQVSLVCLVKGFYPSDIAVEWESNGQPENNYKTTPPVLDSDGSFFLYSVLTVDKSRWQQGNVFSCSVMHEALHNHYTQKSLSLSPG
light 1: DIRMTQSPSSFSASTGDRVTITCRASQGISSYLAWYQRKPGDAPKLLIYTASTLQSGVPSRFSGSGSGTDFTLTIRSLQSEDFATYYCQQYYSYPRTFGQGTKVEIKRTVAAPSVFIFPPSDEQLKSGTASVVCLLNNFYPREAKVQWKVDNALQSGNSQESVTEQDSKDSTYSLSSTLTLSKADYEKHKVYACEVTHQGLSSPVTKSFNRGEC
heavy 2: QVQLVQSGAEVKKPGASVKVSCKASGYTFTSHWMHWVRYAPGQGLEWIGEFNPSNGRTNYNEKFKSKATMTVDTSTNTAYMELSSLRSEDTAVYYCASRDYDYDGRYFDYWGRGTLVTVSSASTKGPSVFPLAPSSKSTSGGTAALGCLVKDYFPEPVTVSWNSGALTSGVHTFPAVLQSSGLYSLSSVVTVPSSSLGTQTYICNVNHKPSNTKVDKKVEPKSCDKTHTCPPCPAPEAAGGPSVFLFPPKPKDTLMISRTPEVTCVVVDVSHEDPEVKFNWYVDGVEVHNAKTKPREEQYNSTYRVVSVLTVLHQDWLNGKEYKCKVSNKALPAPIEKTISKAKGQPRRPRVYTLPPSREEMTKNQVSLVCLVKGFYPSDIAVEWESNGQPENNYKTTPPVLDSDGSFFLYSVLTVDKSRWQQGNVFSCSVMHEALHNHYTQKSLSLSPG
light 2: DIQMTQSPSSLSASVGDRVTITCSASSSVTYMYWYQRKPGDAPKLLIYDTSNLASGVPSRFSGSGSGTDYTFTISSLQPEDIATYYCQQWSSHIFTFGQGTKVEIKRTVAAPSVFIFPPSDEQLKSGTASVVCLLNNFYPREAKVQWKVDNALQSGNSQESVTEQDSKDSTYSLSSTLTLSKADYEKHKVYACEVTHQGLSSPVTKSFNRGEC
With B3, in test [4], the “EC50 CHO-K1 EGFR Low (nM)” value stood at 0.147 nM and the “EC50 CHO-K1 EGFR Med (nM)” value is 0.0234 nM.

B4: GOMP001_bsAb_013 (bispecific antibody, human IgG1, kappa, L234A L235A)
heavy 1: QVQLVQSGAEVKKPGASVKVSCKASGYTFTSHWMHWVRKAPGQGLEWIGEFNPSNGRTNYNEEFKSKATMTVDTSTNTAYMELSSLRSEDTAVYYCASRDYDYDGRYFDYWGQGTLVTVSSASTKGPSVFPLAPSSKSTSGGTAALGCLVADYFPEPVTVSWNSGALTSGVHTFPAVLQSSGLYSLSSVVTVPSSSLGTQTYICNVNHKPSNTKVDEKVEPKSCDKTHTCPPCPAPEAAGGPSVFLFPPKPKDTLMISRTPEVTCVVVDVSHEDPEVKFNWYVDGVEVHNAKTKPREEQYNSTYRVVSVLTVLHQDWLNGKEYKCKVSNKALPAPIEKTISKAKGQPREPQVYTLPPSREEMTDNQVSLTCLVKGFYPSDIAVEWESNGQPENNYKTTPPVLMSDGSFFLASKLTVDKSRWQQGNVFSCSVMHEALHNHYTQKSLSLSPG
light 1: RIQMTQSPSSLSASVGDRVTITCSASSSVTYMYWYQDKPGKAPKLLIYDTSNLASGVPSRFSGSGSGTDYTFTISSLQPEDIATYYCQQWSSHIFTFGQGTKVEIKRTVAAPSVFIFPPSDKQLKSGTARVVCLLNNFYPREAKVQWKVDNALQSGNSQESVTEQDSKDSTYSLSSTLTLSKADYEKHKVYACEVTHQGLSSPVTKSFNRGEC
heavy 2: QVQLVQSGAEVKKPGASVKVSCKASGYTFTSYDINWVRYATGQGLEWMGWMNPKSGKTGYAQKFQGRITMTRNTPISTVYMDLSSLRSEDTAVYYCAREGHYDFWTGYYSFDYWGRGTLVTVSSASTKGPSVFPLAPSSKSTSGGTAALGCLVKDYFPEPVTVSWNSGALTSGVHTFPAVLQSSGLYSLSSVVTVPSSSLGTQTYICNVNHKPSNTKVDKKVEPKSCDKTHTCPPCPAPEAAGGPSVFLFPPKPKDTLMISRTPEVTCVVVDVSHEDPEVKFNWYVDGVEVHNAKTKPREEQYNSTYRVVSVLTVLHQDWLNGKEYKCKVSNKALPAPIEKTISKAKGQPRRPRVYTLPPSREEMTKNQVSLVCLVKGFYPSDIAVEWESNGQPENNYKTTPPVLDSDGSFFLYSVLTVDKSRWQQGNVFSCSVMHEALHNHYTQKSLSLSPG
light 2: DIQMTQSPSSLSASVGDRVTITCRASQGIRNDLGWYQRTPGDAPKRLIYAASSLQSGVPSRFSGSGSGTEFTLTISSLQPEDFATYYCLQHYSYPYTFGQGTKLEIKRTVAAPSVFIFPPSDEQLKSGTASVVCLLNNFYPREAKVQWKVDNALQSGNSQESVTEQDSKDSTYSLSSTLTLSKADYEKHKVYACEVTHQGLSSPVTKSFNRGEC
For B4, in test [4], the “EC50 CHO-K1 EGFR Low (nM)” value was found to be 1.31 nM and the “EC50 CHO-K1 EGFR Med (nM)” value came out at 0.239 nM.

B5: GOMP001_bsAb_014 (bispecific antibody, human IgG1, kappa, L234A L235A)
heavy 1: QVQLVQSGAEVKKPGASVKVSCKASGYTFTSYDINWVRYATGQGLEWMGWMNPKSGKTGYAQKFQGRITMTRNTPISTVYMDLSSLRSEDTAVYYCAREGHYDFWTGYYSFDYWGRGTLVTVSSASTKGPSVFPLAPSSKSTSGGTAALGCLVKDYFPEPVTVSWNSGALTSGVHTFPAVLQSSGLYSLSSVVTVPSSSLGTQTYICNVNHKPSNTKVDKKVEPKSCDKTHTCPPCPAPEAAGGPSVFLFPPKPKDTLMISRTPEVTCVVVDVSHEDPEVKFNWYVDGVEVHNAKTKPREEQYNSTYRVVSVLTVLHQDWLNGKEYKCKVSNKALPAPIEKTISKAKGQPRRPRVYTLPPSREEMTKNQVSLVCLVKGFYPSDIAVEWESNGQPENNYKTTPPVLDSDGSFFLYSVLTVDKSRWQQGNVFSCSVMHEALHNHYTQKSLSLSPG
light 1: DIQMTQSPSSLSASVGDRVTITCRASQGIRNDLGWYQRTPGDAPKRLIYAASSLQSGVPSRFSGSGSGTEFTLTISSLQPEDFATYYCLQHYSYPYTFGQGTKLEIKRTVAAPSVFIFPPSDEQLKSGTASVVCLLNNFYPREAKVQWKVDNALQSGNSQESVTEQDSKDSTYSLSSTLTLSKADYEKHKVYACEVTHQGLSSPVTKSFNRGEC
heavy 2: QVQLVQSGAEVKKPGASVKVSCKASGYTFTSHWMHWVRYAPGQGLEWIGEFNPSNGRTNYNEKFKSKATMTVDTSTNTAYMELSSLRSEDTAVYYCASRDYDYDGRYFDYWGRGTLVTVSSASTKGPSVFPLAPSSKSTSGGTAALGCLVKDYFPEPVTVSWNSGALTSGVHTFPAVLQSSGLYSLSSVVTVPSSSLGTQTYICNVNHKPSNTKVDKKVEPKSCDKTHTCPPCPAPEAAGGPSVFLFPPKPKDTLMISRTPEVTCVVVDVSHEDPEVKFNWYVDGVEVHNAKTKPREEQYNSTYRVVSVLTVLHQDWLNGKEYKCKVSNKALPAPIEKTISKAKGQPRRPRVYTLPPSREEMTKNQVSLVCLVKGFYPSDIAVEWESNGQPENNYKTTPPVLDSDGSFFLYSVLTVDKSRWQQGNVFSCSVMHEALHNHYTQKSLSLSPG
light 2: DIQMTQSPSSLSASVGDRVTITCSASSSVTYMYWYQRKPGDAPKLLIYDTSNLASGVPSRFSGSGSGTDYTFTISSLQPEDIATYYCQQWSSHIFTFGQGTKVEIKRTVAAPSVFIFPPSDEQLKSGTASVVCLLNNFYPREAKVQWKVDNALQSGNSQESVTEQDSKDSTYSLSSTLTLSKADYEKHKVYACEVTHQGLSSPVTKSFNRGEC
With B5, in test [4], the “EC50 CHO-K1 EGFR Low (nM)” value came out at 0.238 nM and the “EC50 CHO-K1 EGFR Med (nM)” value was 0.0722 nM.
